Measured values from article PMC13219714, “μ₃-Oxo nucleophile formation enables efficient SN2 hydrolysis at the trinuclear metal center in inorganic pyrophosphatase” (Communications Chemistry, 2026).
Positions count from the first letter of the chain named. Names may count otherwise.

Key:
[1] = molecular target: T1, ShPPase (Family II inorganic pyrophosphatase from Shewanella sp. AS-11) (Shewanella sp. AS-11, UniProt L8AXY8); test: Zn K-edge XANES / EXAFS; format: binding; conditions: Zn2+-ShPPase 1.1 mM, 0.1 M PNP, 0.1 M MgCl2, pH 7.5; active site, trinuclear metal center
T1 construct: gene ppia; recombinant from pET16b in E. coli BL21(DE3); purified as previously described
T1 sequence (L8AXY8 2-308): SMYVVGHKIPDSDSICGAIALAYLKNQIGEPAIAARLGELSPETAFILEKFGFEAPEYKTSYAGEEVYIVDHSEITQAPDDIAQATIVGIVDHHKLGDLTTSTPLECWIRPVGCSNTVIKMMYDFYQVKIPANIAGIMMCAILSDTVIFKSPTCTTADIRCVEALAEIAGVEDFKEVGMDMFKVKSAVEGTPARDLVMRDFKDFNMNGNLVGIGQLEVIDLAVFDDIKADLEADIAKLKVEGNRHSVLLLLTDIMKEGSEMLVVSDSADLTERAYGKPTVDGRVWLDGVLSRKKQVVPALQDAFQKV

[2] = substrate: O=P(O)(O)OP(=O)(O)O; test: molybdenum blue phosphate release; format: biochemical, Shewanella sp. AS-11; conditions: Zn2+-activated enzyme, 5 mM MgCl2, 50 mM KCl, 100 mM Tris-HCl pH 7.5, 25 °C
Excerpt: molybdenum blue phosphate release on ShPPase (Family II inorganic pyrophosphatase from Shewanella sp. AS-11)

[3] = primers for D14N and D14A appear exchanged

With `O=P(O)(O)NP(=O)(O)O` [PNP, imidodiphosphate] the “Zn K-edge XANES / EXAFS” value [1] was “Zn²⁺ ions are predominantly five-coordinate in the substrate-free form, but transition to six-coordinate upon PNP binding”.

B1: ShPPase (Family II inorganic pyrophosphatase from Shewanella sp. AS-11) (Shewanella sp. AS-11) (protein)
chain: T1 sequence (L8AXY8 2-308)
notes: recombinant from pET16b in E. coli BL21(DE3); purified as previously described
B1 showed a Km [2] of 79 ± 18 µM, a kcat [2] of 99.8 ± 5.5 s⁻¹ and a kcat/Km [2] of 1.26e+06 M⁻¹ s⁻¹.

B2: ShPPase (Family II inorganic pyrophosphatase from Shewanella sp. AS-11) (Shewanella sp. AS-11; D14A) (protein)
chain: T1 sequence (L8AXY8 2-308) with D13A
notes: as for B1
In the case of B2, the Km [2] is reported as 179 ± 37 µM, the kcat [2] is reported as 0.019 ± 0.001 s⁻¹ and the kcat/Km [2] is reported as 110 M⁻¹ s⁻¹.

B3: ShPPase (Family II inorganic pyrophosphatase from Shewanella sp. AS-11) (Shewanella sp. AS-11; D14N) (protein)
chain: T1 sequence (L8AXY8 2-308) with D13N
notes: as for B1
With B3 the Km [2, 3] was 100 ± 20 µM, the kcat [2, 3] was 0.034 ± 0.002 s⁻¹ and the kcat/Km [2, 3] was 340 M⁻¹ s⁻¹.
